In PMC3940207 (Molecular cell, 2014):
Values belong to the molecule of their own block, whether it stands above or below them.

How the values were obtained:
[1] = molecular target: single chain H2B_(36-130) and H2A.Z_(22-118) chimera; assay: ITC
[2] = molecular target: single chain H2B_(36-130) and H2A.Z_(22-118) chimera; assay: AUC
[3] = molecular target: T1, Swr1_(504-650) (S. cerevisiae, UniProt Q05471 505-651); assay: ITC
T1 sequence (looked up): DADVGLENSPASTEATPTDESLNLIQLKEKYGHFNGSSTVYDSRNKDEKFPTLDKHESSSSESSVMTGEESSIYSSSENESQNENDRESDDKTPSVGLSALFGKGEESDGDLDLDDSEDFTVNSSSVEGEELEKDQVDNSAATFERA

Kd [1]: 7 nM
Molecule: Swr1_(504-650) (from UniProt Q05471 505-651) (domain or fragment)

stoichiometry N [2]: 1
Molecule: Swr1_(589-650) (from UniProt Q05471 590-651) (domain or fragment)

Kd [3]: ~151 nM
B1: scH2B-H2A (other)
chain: MRKETYSSYIYKVLKQTHPDTGISQKSMSILNSFVNDIFERIATEASKLAAYNKKSTISAREIQTAVRLILPGELAKHAVSEGTRAVTKYSSSTQAQSRSAKAGLTFPVGRVHRLLRRGNYAQRIGSGAPVYLTAVLEYLAAEILELAGNAARDNKKTRIIPRHLQLAIRNDDELNKLLGNVTIAQGGVLPNI
